{"source": "patent US20260167740A1", "about": "“MEANS AND METHODS FOR TREATING CASTRATION-RESISTANT PROSTATE CANCER” (Merus N.V., priority 2022, published 2026)", "assay_type_in_all_cases": "in vivo, human", "key": {"[1]": {"assay": "Single-agent treatment of over 100 patients with MF3958×MF3178: tolerability and immunogenicity"}, "[2]": {"assay": "Phase II clinical study of zenocutuzumab with an AR axis-targeting agent in mCRPC patients: safety", "settings": "cohort of ten mCRPC patients", "excerpt": "(§1) This is a Phase II, open-label, multicenter, international study designed to evaluate the efficacy of zenocutuzumab in patients with metastatic mCRPC with evidence of disease progression in accordance with Prostate Cancer Clinical Trials Working Group 3 (PCWG3) criteria on the last line of prior hormonal therapy that included either the second-generation AR antagonist enzalutamide or the androgen synthesis inhibitor abiraterone acetate. Patients will be enrolled and will receive zenocutuzumab in combination with the AR targeting agent on which they experienced disease progression immediately before study entry. A cohort of patients with […] and tensin homolog (PTEN) wild-type status will be enrolled. A safety run-in will be performed in the first 4 to 6 patients.\n(§2) Zenocutuzumab will be administered as a 2-hour IV infusion on Day 1, then Q2W of every 28-day cycle. A flat dose of 750 mg will be administered.\n(§3) Patients will receive zenocutuzumab in combination with one of the following next generation AR signaling inhibitors that the patient was receiving immediately prior to entering the study: • Abiraterone acetate (ZYTIGA®) 1000 mg PO QD in combination with prednisone 5 mg PO twice daily (BID). • Enzalutamide (XTANDIR) 160 mg PO QD.\n(§4) Eligible patients will be enrolled and will receive sequential treatment cycles, with a treatment cycle being 4 weeks (28 days). All patients will receive zenocutuzumab with a flat dose of 750 mg IV Q2W.\n(§5) Following the clinical trial protocol of Example 2, mCRPC patients with histologically confirmed prostate adenocarcinoma were enrolled. Patients who were progressing on either abiraterone acetate or enzalutamide were continued on their backbone AR axis-targeting agents after study enrollment and received treatment with zenocutuzumab in combination. Sites of metastatic involvement included lymph nodes, bone, and/or visceral organs. PTEN status of tumors was established in patients by IHC when sufficient biological material was available, using Roche Ventana Optiview kit DAB and SP218 PTEN antibody using Benchmark Ultra immunohistochemical automated slide stainer. The OptiView DAB IHC Detection Kit (OptiView) is an indirect, biotin-free system for detecting mouse IgG, mouse IgM and rabbit primary antibodies. The kit is intended to identify targets by IHC in sections of formalin-fixed, paraffin-embedded and frozen tissue that are stained on the VENTANA automated slide stainers and visualized by light microscopy. The clinical interpretation of any staining, or the absence of staining, is complemented by morphological studies and evaluation of proper controls.\nAmong a cohort of ten patients treated, treatment-emergent adverse events (TEAE) related to study treatment classified as a Grade 3 TEAE or higher were not observed."}, "[3]": {"system": "castration-resistant prostate cancer", "assay": "Phase II clinical study of zenocutuzumab with an AR axis-targeting agent in mCRPC patients: tumor response (RECIST v1.1 / PCWG3)", "excerpt": "as §1, §2, §3, §4\nRadiological measurement of tumors to assess antitumor effect of zenocutuzumab will be performed by CT scan or MRI. Imaging will be performed according to standard local practice and data will be collected in the electronic case report form. Imaging of all patients will be assessed by the local investigator.\nWhole body bone scintigraphy will be performed every 8 weeks for the first 12 months of treatment and every 12 weeks thereafter. Tumor assessments will be completed according to PCWG3-modified RECIST criteria.\nas §5"}, "[4]": {"settings": "zenocutuzumab in combination with abiraterone acetate or enzalutamide"}, "[5]": {"settings": "Example 4: person with mCRPC, combination with enzalutamide, 6 months"}, "[6]": {"settings": "Example 5: person with mCRPC, PTEN loss, combination with abiraterone acetate/prednisone, 4 months"}}}
{"substance": "zenocutuzumab: Full length IgG1 bispecific antibody comprising MF3958×MF3178, targeting ERBB2 and ERBB3", "values": [{"measurement": "risk for immunogenicity", "setting": "[1]", "result": "low risk for immunogenicity"}, {"measurement": "tolerability as a single agent", "setting": "[1]", "result": "well tolerated"}, {"measurement": "treatment-emergent adverse events (TEAE) related to study treatment classified as Grade 3 TEAE or higher", "setting": "[2]; zenocutuzumab 750 mg IV Q2W in combination with abiraterone acetate or enzalutamide", "result": "not observed"}, {"measurement": "infusion-related reactions (IRR) reported", "setting": "[2]; [4]", "result": "a single IRR was reported (i.e. Grade 2, related)"}, {"measurement": "safety concerns", "setting": "[2]; [4]", "result": "no safety concerns"}, {"measurement": "tolerability of the combination", "setting": "[2]; [4]", "result": "very well tolerated"}, {"measurement": "treatment discontinuation due to an adverse event", "setting": "[2]; [4]", "result": "no treatment discontinuation"}, {"measurement": "unexpected signals of toxicity", "setting": "[2]; [4]", "result": "nor were any unexpected signals of toxicity reported"}, {"measurement": "radiographic progression (lymph node)", "setting": "[3]; Example 4: combination with enzalutamide, after six months of on-going treatment", "result": "no evidence of lymph node progression"}, {"measurement": "best overall response by RECIST", "setting": "[3]; [5]", "result": "stable disease"}, {"measurement": "response by bone scans by PCWG3", "setting": "[3]; [5]", "result": "no evidence of disease (NED)"}, {"measurement": "radiographic progression (lymph node or bone)", "setting": "[3]; Example 5: combination with abiraterone acetate/prednisone, after five months of on-going treatment", "result": "no evidence of lymph node or bone progression"}, {"measurement": "best overall response by RECIST", "setting": "[3]; [6]", "result": "stable disease"}, {"measurement": "response by bone scans by PCWG3", "setting": "[3]; [6]", "result": "stable disease"}, {"measurement": "best overall response by measurement of target lesions (lymph nodes) under RECIST v1.1 per investigator", "setting": "[3]; Example 6: person with mCRPC, PTEN wildtype, combination with enzalutamide", "result": "stable disease"}]}
